Experimental findings from FireProtDB (doi:10.1002/pro.5560010205) are described below.

For the series the following is noted: Mus musculus; pH 4; 23 °C; GdnHCl; Fluorescence; sodium phosphate 100 mM; reversible: yes; whole UniProt chain shown.

B1: Beta-nerve growth factor wild type, P01139 (protein)
chain: MSMLFYTLITAFLIGVQAEPYTDSNVPEGDSVPEAHWTKLQHSLDTALRRARSAPTAPIAARVTGQTRNITVDPRLFKKRRLHSPRVLFSTQPPPTSSDTLDLDFQAHGTIPFNRTHRSKRSSTHPVFHMGEFSVCDSVSVWVGDKTTATDIKGKEVTVLAEVNINNSVFRQYFFETKCRASNPVESGCRGIDSKHWNSYCTTTHTFVKALTTDEKQAAWRFIRIDTACVCVLSRKATRRG
Regarding B1, the unfolding free energy came out at 60.7 kJ/mol.
